The target of one test is CD20 on cell lines (UniProt P11836). Kind of test: cell-based or functional assay.
Test [1] deals with T1, human CD38 on cells or tissue (human, UniProt P28907 1-300).
The target in test [2] is T1, human CD38 on cells or tissue. Kind of test: cell-based or functional assay.
Test [3] has the same target. Kind of test: FACS Scatchard, IgG1 on RPMI8226 MM cells; mean of at least 2 determinations.
Test [4] shares this target. Kind of test: cell-based or functional assay. This is another data set of the same source.
For test [5] the target is unchanged. Kind of test: cell-based or functional assay. This is another data set of the same source.
For test [6], the target named is T2, hCD38 Fc fusion protein (aa 45-273) (human, UniProt P28907 45-273).
T2 construct: Making of this construct is not described; also called C-terminally deleted format; not shown: Fc part (not described for this construct)
Kind of test: ELISA; antigen coated at 5 µg/ml, anti-human Fab alkaline phosphatase conjugate, fluorescence Ex/Em 430/535 nm.

Test [7] has as its target T3, bovine serum albumine (bovine, UniProt P02769 25-607).
T3 construct: Control antigen coated on ELISA wells; also called BSA
The test is described as above.

For test [8], the target named is T4, hCD38 Fc fusion protein (aa 45-300) (human, UniProt P28907 45-300).
T4 construct: produced in HEK293; also called full-length hCD38 Fc-fusion protein; soluble CD38-Fc
Kind of test: SPR (Biacore 3000), Fab over directly immobilized CD38-Fc fusion protein; mean of at least 2 determinations. In general terms: In SPR one partner is held on a chip, and binding of the other changes the refractive index at the surface.

The target of test [9] is T5, cynomolgus monkey CD38 on cells or tissue (cynomolgus monkey, UniProt Q5VAN0 1-301).
T5 construct: whole, on cells
The experiment in a line: FACS on lymphocytes; IHC on spleen, lymph-nodes.

Test [10] addresses T2, hCD38 Fc fusion protein (aa 45-273). The experiment in a line: ELISA; antigen coated at 5 µg/ml, anti-murine Fab alkaline phosphatase conjugate, fluorescence Ex/Em 430/535 nm. In general terms: ELISA stands for enzyme-linked immunosorbent assay.
Test [11] has as its target T3, bovine serum albumine. Described as above.
Test [12] has as its target T1, human CD38 on cells or tissue. Kind of test: cell-based or functional assay. This is another data set of the same source.
The target is the same in test [13]. Kind of test: cell-based or functional assay. The source holds these as a separate data set.

Where two headings read alike, the source gives them in different places.

T3 sequence (P02769 25-607 limits assumed): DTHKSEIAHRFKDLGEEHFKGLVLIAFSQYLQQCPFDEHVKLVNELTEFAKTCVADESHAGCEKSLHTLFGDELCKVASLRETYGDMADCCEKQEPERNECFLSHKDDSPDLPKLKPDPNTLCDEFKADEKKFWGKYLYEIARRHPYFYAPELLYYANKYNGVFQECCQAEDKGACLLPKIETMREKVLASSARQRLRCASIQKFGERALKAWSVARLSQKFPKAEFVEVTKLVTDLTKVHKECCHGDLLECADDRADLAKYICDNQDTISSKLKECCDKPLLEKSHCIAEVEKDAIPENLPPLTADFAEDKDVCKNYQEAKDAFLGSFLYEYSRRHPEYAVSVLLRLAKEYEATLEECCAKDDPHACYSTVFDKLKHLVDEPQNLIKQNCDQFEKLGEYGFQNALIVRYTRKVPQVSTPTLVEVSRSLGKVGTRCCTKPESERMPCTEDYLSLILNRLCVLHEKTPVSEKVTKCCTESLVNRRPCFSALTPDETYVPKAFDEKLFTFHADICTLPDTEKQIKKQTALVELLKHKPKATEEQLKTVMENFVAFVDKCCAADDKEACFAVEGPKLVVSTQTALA
Chain of CD20 on cell lines (P11836 whole entry): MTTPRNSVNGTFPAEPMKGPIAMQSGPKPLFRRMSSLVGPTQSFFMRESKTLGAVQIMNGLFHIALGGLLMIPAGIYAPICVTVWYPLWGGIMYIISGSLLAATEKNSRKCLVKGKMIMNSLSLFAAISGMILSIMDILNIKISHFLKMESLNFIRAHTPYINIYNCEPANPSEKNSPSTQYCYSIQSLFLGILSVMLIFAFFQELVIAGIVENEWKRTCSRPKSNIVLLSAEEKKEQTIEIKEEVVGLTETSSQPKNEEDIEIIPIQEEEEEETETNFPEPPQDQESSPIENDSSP
T5 sequence (Q5VAN0 whole entry): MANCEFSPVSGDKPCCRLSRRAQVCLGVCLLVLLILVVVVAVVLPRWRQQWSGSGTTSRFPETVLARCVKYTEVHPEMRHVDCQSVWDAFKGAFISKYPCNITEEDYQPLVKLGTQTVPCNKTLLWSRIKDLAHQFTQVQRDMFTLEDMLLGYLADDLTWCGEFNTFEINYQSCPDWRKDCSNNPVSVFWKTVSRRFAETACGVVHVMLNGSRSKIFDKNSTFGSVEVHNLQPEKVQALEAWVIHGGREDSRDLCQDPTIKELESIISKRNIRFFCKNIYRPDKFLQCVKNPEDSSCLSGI

On to Rituximab (antibody), for which, in the test with CD20 on cell lines, the Namalwa (max. spec. Killing), o/n incubation was under 1% and the Raji (max. spec. killing), o/n incubation was determined as 9%.
Usually Kd stands for the equilibrium constant for the complex coming apart. For the molecule chimeric OKT10 (antibody), in [1], the max. specific killing in ADCC, NCI-H929 cells (MM), E:T 30:1, 5 µg/ml; column PC is 54%. In [2], this molecule had an ADCC EC50 [nM], LP-1 target cells of 5.23 nM; an ADCC EC50 [nM], RPMI8226 target cells of 4.1 nM; a CDC EC50 [nM], CHO-transfectants of 9.3 nM. Moreover, the Kd in test [3] amounted to 8.28 nM.

B1: MOR03080 human IgG1 (antibody, V domains shown)
VH: QVQLVESGGGLVQPGGSLRLSCAASGFTFSSYGMHWVRQAPGKGLEWVSNIYSDGSNTFYADSVKGRFTISRDNSKNTLYLQMNSLRAEDTAVYYCARNMYRWPFHYFFDYWGQGTLVTVSS
VL: DIELTQPPSVSVAPGQTARISCSGDNIGNKYVSWYQQKPGQAPVVVIYGDNNRPSGIPERFSGSNSGNTATLTISGTQAEDEADYYCSSYDSSYFVFGGGTKLTVLG
notes: also called MAb#3
In the case of B1, in test [4], the “ADCC EC50 [nM], LP-1 target cells” value was 0.17 nM; the “ADCC EC50 [nM], RPMI8226 target cells” value was determined as 0.05 nM; the “CDC EC50 [nM], CHO-transfectants (mean from 2 determinations)” value (from here on “CDC EC50 … (mean from 2 determinations)”) is 3.2 nM; the “CDC EC50 [nM], CHO-transfectants (mean from 3 determinations)” value was found to be 2.93 nM. Besides, in test [5], the “MM-samples (max. spec. Killing), 4 hrs incubation” value (“MM-samples (max. spec. Killing)” below) was determined as 4%; the “Namalwa (max. spec. Killing), o/n incubation” value (from here on “Namalwa (max. spec. Killing)”) is under 1%; the “Raji (max. spec. killing), o/n incubation” value (“Raji (max. spec. killing)” for short) was 4%. Moreover, the Kd in test [3] turned out to be 0.47 nM. In addition, the binding result in test [6] is listed as “no binding (tested: 10 µg/ml)”. Also, the binding result with bovine serum albumine [7] is “no binding (tested: 10 µg/ml)”.

B2: MOR03080 Fab (Fab, V domains shown)
VH: QVQLVESGGGLVQPGGSLRLSCAASGFTFSSYGMHWVRQAPGKGLEWVSNIYSDGSNTFYADSVKGRFTISRDNSKNTLYLQMNSLRAEDTAVYYCARNMYRWPFHYFFDYWGQGTLVTVSS
VL: DIELTQPPSVSVAPGQTARISCSGDNIGNKYVSWYQQKPGQAPVVVIYGDNNRPSGIPERFSGSNSGNTATLTISGTQAEDEADYYCSSYDSSYFVFGGGTKLTVLG
notes: also called antibody no
Regarding B2, in test [8], binding was characterised by a dissociation constant (Kd) of 27.5 nM.

B3: MOR03080 human-mouse chimeric IgG2a (antibody, V domains shown)
VH: QVQLVESGGGLVQPGGSLRLSCAASGFTFSSYGMHWVRQAPGKGLEWVSNIYSDGSNTFYADSVKGRFTISRDNSKNTLYLQMNSLRAEDTAVYYCARNMYRWPFHYFFDYWGQGTLVTVSS
VL: DIELTQPPSVSVAPGQTARISCSGDNIGNKYVSWYQQKPGQAPVVVIYGDNNRPSGIPERFSGSNSGNTATLTISGTQAEDEADYYCSSYDSSYFVFGGGTKLTVLG
notes: Chimeric IgG2a: human variable regions of MOR03080 and murine constant regions; also called MAb#3 (chimeric: human variable domaine/murine Fc 2a); mu03080
As for B3, the binding result in test [9] is reported as “binds”; in [10], “no binding (tested: 10 µg/ml)”; with bovine serum albumine [11], “no binding (tested: 10 µg/ml)”.

B4: MOR03079 human IgG1 (antibody, V domains shown)
VH: QVQLVESGGGLVQPGGSLRLSCAASGFTFSNYGMHWVRQAPGKGLEWVSNIRSDGSWTYYADSVKGRFTISRDNSKNTLYLQMNSLRAEDTAVYYCARRYWSKSHASVTDYWGQGTLVTVSS
VL: DIQMTQSPSSLSASVGDRVTITCRASQDISAFLNWYQQKPGKAPKLLIYKVSNLQSGVPSRFSGSGSGTDFTLTISSLQPEDFATYYCQQAYSGSITFGQGTKVEIKR
notes: also called MAb#2
Turning to B4, in [12], the “CDC EC50, LP-1 cells” value was 0.55 nM. Further, in test [4], the “ADCC EC50 [nM], LP-1 target cells” value is 0.09 nM; the “ADCC EC50 [nM], RPMI8226 target cells” value is 0.04 nM; the “CDC EC50 [nM], CHO-transfectants” value is 0.41 nM. Moreover, in test [5], the “MM-samples (max. spec. Killing)” value was 24%; the “Namalwa (EC50), killing by cross-linking” value turned out to be 0.08 nM; the “Namalwa (max. spec. Killing)” value is 18%; the “Raji (EC50), killing by cross-linking” value is 0.08 nM. Moreover, in test [5], the “Raji (max. spec. killing)” value amounted to 21%. The molecule also gave a Kd in test [3] of 0.6 nM. The binding result in [6] is “no binding (tested: 10 µg/ml)”. Moreover, the binding result with bovine serum albumine [7] was “no binding (tested: 10 µg/ml)”.

B5: MOR03079 human-mouse chimeric IgG2a (antibody, V domains shown)
VH: QVQLVESGGGLVQPGGSLRLSCAASGFTFSNYGMHWVRQAPGKGLEWVSNIRSDGSWTYYADSVKGRFTISRDNSKNTLYLQMNSLRAEDTAVYYCARRYWSKSHASVTDYWGQGTLVTVSS
VL: DIQMTQSPSSLSASVGDRVTITCRASQDISAFLNWYQQKPGKAPKLLIYKVSNLQSGVPSRFSGSGSGTDFTLTISSLQPEDFATYYCQQAYSGSITFGQGTKVEIKR
notes: Chimeric IgG2a: human variable regions of MOR03079 fused to murine Fc gamma 2a constant regions; also called MAb#2 (chimeric: human variable domaine/murine Fc 2a); mu03079
For B5, the binding result (in test [10]; with bovine serum albumine [11]) was “no binding (tested: 10 µg/ml)” in each case.

B6: MOR03079 Fab (Fab, V domains shown)
VH: QVQLVESGGGLVQPGGSLRLSCAASGFTFSNYGMHWVRQAPGKGLEWVSNIRSDGSWTYYADSVKGRFTISRDNSKNTLYLQMNSLRAEDTAVYYCARRYWSKSHASVTDYWGQGTLVTVSS
VL: DIQMTQSPSSLSASVGDRVTITCRASQDISAFLNWYQQKPGKAPKLLIYKVSNLQSGVPSRFSGSGSGTDFTLTISSLQPEDFATYYCQQAYSGSITFGQGTKVEIKR
notes: also called antibody no
In turn, B6 showed a Kd in [8] of 2.4 nM.

B7: MOR03077 human IgG1 (antibody, V domains shown)
VH: QVQLVQSGAEVKKPGASVKVSCKASGYTFTSYSINWVRQAPGQGLEWMGYIDPNRGNTNYAQKFQGRVTMTRDTSISTAYMELSSLRSEDTAVYYCAREYIYFIHGMLDFWGQGTLVTVSS
VL: DIVMTQSPLSLPVTPGEPASISCRSSQSLLFIDGNNYLNWYLQKPGQSPQLLIYLGSNRASGVPDRFSGSGSGTDFTLKISRVEAEDVGVYYCQQYSSKSATFGQGTKVEIKR
notes: also called MAb#1
For B7, in test [12], the “CDC EC50, LP-1 cells” value turned out to be 5.6 nM and the “CDC EC50 on hCD38-transfectants, fold better than reference antibody chOKT10” value was found to be 3 fold. In [4], the “ADCC EC50 [nM], LP-1 target cells” value came out at 0.6 nM; the “ADCC EC50 [nM], RPMI8226 target cells” value stood at 0.08 nM; the “CDC EC50 … (mean from 2 determinations)” value stood at 0.8 nM; the “CDC EC50 [nM], CHO-transfectants (mean from 3 determinations)” value was found to be 0.94 nM. Moreover, in test [5], the “MM-samples (max. spec. Killing)” value was found to be 21%; the “Namalwa (max. spec. Killing)” value amounted to 11%; the “Raji (max. spec. killing)” value turned out to be 21%. For the same molecule, the “ADCC EC50 values in [nM], MM Samples (purified primary MM-cells)” value in [13] came to 0.08 nM. Besides, in test [3], the affinity, expressed as Kd, was 0.89 nM. Further, the binding result in test [6] was “no binding (tested: 10 µg/ml)”. In addition, in the test with bovine serum albumine [7], the binding result is listed as “no binding (tested: 10 µg/ml)”.

B8: MOR03077 Fab (Fab, V domains shown)
VH: QVQLVQSGAEVKKPGASVKVSCKASGYTFTSYSINWVRQAPGQGLEWMGYIDPNRGNTNYAQKFQGRVTMTRDTSISTAYMELSSLRSEDTAVYYCAREYIYFIHGMLDFWGQGTLVTVSS
VL: DIVMTQSPLSLPVTPGEPASISCRSSQSLLFIDGNNYLNWYLQKPGQSPQLLIYLGSNRASGVPDRFSGSGSGTDFTLKISRVEAEDVGVYYCQQYSSKSATFGQGTKVEIKR
notes: also called antibody no
In turn, B8 returned a Kd in [8] of 56 nM.

B9: MOR03100 human IgG1 (antibody, V domains shown)
VH: QVQLVESGGGLVQPGGSLRLSCAASGFTFSSNGMSWVRQAPGKGLEWVSNISYLSSSTYYADSVKGRFTISRDNSKNTLYLQMNSLRAEDTAVYYCARFYGYFNYADVWGQGTLVTVSS
VL: DIELTQPPSVSVAPGQTARISCSGDNIGHYYASWYQQKPGQAPVLVIYRDNDRPSGIPERFSGSNSGNTATLTISGTQAEDEADYYCQSYDYLHDFVFGGGTKLTVLG
notes: also called LAC 3100; MAb#4
With B9, in test [4], the “ADCC EC50 [nM], LP-1 target cells” value turned out to be 1 nM; the “ADCC EC50 [nM], RPMI8226 target cells” value came to 0.28 nM; the “CDC EC50 … (mean from 2 determinations)” value came out at 10.9 nM; the “CDC EC50 [nM], CHO-transfectants (mean from 4 determinations)” value was found to be 13.6 nM. Besides, in test [3], binding was characterised by a dissociation constant (Kd) of 6.31 nM. Also, the binding result in [6] was “no binding (tested: 10 µg/ml)”. The binding result in the test with bovine serum albumine [7] is “no binding (tested: 10 µg/ml)”.

B10: MOR03100 Fab (Fab, V domains shown)
VH: QVQLVESGGGLVQPGGSLRLSCAASGFTFSSNGMSWVRQAPGKGLEWVSNISYLSSSTYYADSVKGRFTISRDNSKNTLYLQMNSLRAEDTAVYYCARFYGYFNYADVWGQGTLVTVSS
VL: DIELTQPPSVSVAPGQTARISCSGDNIGHYYASWYQQKPGQAPVLVIYRDNDRPSGIPERFSGSNSGNTATLTISGTQAEDEADYYCQSYDYLHDFVFGGGTKLTVLG
notes: also called LAC 3100; antibody no; 3100
In turn, B10 came in with a Kd in test [8] of 10 nM.
